Reference: US20180243434A1 (INSERM INSTITUT NATIONAL DE LA SANT ET DE LA RECHERCHE M …, published 2018)

T1: N-terminal Flag-tagged nectin4 expressed in MDA-MB-231 cells (human, UniProt Q96NY8 32-510)
T1 sequence (looked up): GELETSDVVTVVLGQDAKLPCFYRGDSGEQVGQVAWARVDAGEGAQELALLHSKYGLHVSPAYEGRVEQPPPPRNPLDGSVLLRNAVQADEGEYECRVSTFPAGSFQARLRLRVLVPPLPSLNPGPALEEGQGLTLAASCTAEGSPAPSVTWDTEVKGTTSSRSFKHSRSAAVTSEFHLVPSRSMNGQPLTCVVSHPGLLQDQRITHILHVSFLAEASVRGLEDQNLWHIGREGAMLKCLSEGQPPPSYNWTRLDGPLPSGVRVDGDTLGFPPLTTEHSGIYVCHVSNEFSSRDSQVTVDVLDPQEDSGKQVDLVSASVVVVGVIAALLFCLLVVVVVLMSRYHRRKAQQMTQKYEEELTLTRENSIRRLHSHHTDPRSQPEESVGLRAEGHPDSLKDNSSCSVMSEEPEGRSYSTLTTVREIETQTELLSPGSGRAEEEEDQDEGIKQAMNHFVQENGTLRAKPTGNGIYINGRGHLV

T2: endogenous nectin-4 on SUM190 cells (human, UniProt Q96NY8 32-510)
T2 sequence (looked up): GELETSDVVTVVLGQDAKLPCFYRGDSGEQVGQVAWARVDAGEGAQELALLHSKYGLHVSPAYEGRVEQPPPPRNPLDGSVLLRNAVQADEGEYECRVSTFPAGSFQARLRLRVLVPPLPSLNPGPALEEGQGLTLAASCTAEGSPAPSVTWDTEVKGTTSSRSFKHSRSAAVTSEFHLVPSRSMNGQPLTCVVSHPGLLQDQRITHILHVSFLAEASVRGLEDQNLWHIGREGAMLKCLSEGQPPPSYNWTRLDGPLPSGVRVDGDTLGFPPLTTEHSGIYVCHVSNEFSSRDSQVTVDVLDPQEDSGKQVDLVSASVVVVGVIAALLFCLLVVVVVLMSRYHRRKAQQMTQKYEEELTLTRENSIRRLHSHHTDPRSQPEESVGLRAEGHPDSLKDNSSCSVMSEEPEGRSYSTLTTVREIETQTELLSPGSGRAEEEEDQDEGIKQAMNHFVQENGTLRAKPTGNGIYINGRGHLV

T3: nectin1V-Fc (comprising only the IgV domain) (UniProt Q15223 31-143, limits assumed)
T3 construct: domain: IgV domain; not shown: Fc part
T3 sequence (looked up): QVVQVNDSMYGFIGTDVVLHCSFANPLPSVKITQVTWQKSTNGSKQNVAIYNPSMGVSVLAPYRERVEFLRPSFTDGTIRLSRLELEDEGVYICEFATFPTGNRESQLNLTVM


Columns and labels:
[1] = molecular target: T1, N-terminal Flag-tagged nectin4 …; assay: cell-based or functional assay
[2] = molecular target: T2, endogenous nectin-4 on SUM190 cells; assay: cell-based or functional assay
[3] = molecular target: T3, nectin1V-Fc (comprising only the IgV …); assay: ELISA, plate coated with 5 ug/ml nectin1V-Fc
Protocol: A: Detection by ELISA. Ninety-six-well trays were coated with 5 ug/ml of nectin4V-Fc or nectin1V-Fc (comprising only the IgV domain) overnight at +4° C. as indicated. N41mab recognizes the nectin4V-Fc (bar 3) not the nectin1V-Fc (bar 1).
A sandwich enzyme-linked immunosorbent assay was used to control specificity of N41mab antibody and to perform competition assays between mabs. Ninety-six-well trays were coated with 5 μg/ml of nectin4V-Fc or nectin1V-Fc (comprising only the IgV domain) overnight at +4° C. After washes and saturation with PBS 1% BSA cells were incubated overnight with 0.625 μg/ml of N41mab. Peroxydase conjugated goat anti mouse antibody was incubated 2 h at 25° C. (Pierce). In the case of competition, binding of peroxidase conjugated N41mab was measured in the presence of vairable concentration of “cold” mab. One hundred ul of peroxidase substrate was added (One Step ABST, Pierce), and OD was read at 405 nm.
A sandwich enzyme-linked immunosorbent assay was used to control the specificity of the N41mab antibody. Ninety-six-well trays were coated with 5 μg/ml of nectin4V-Fc or nectin1V-Fc (comprising only the IgV domain) overnight at +4° C. After washes and saturation with PBS 1% BSA cells were incubated overnight with 0.625 μg/ml of mab1/N41mab. […] One hundred μ1 of peroxidase substrate was added (One Step ABST, Pierce), and OD was read at 405 nm.

| IC50 (cell growth, alamarBlue) [1] [ng/mL] | IC50 (cell growth, alamarBlue) [2] [ng/mL] | binding result [3] | Binder |
| --- | --- | --- | --- |
| 2 | 4 |  | N41mab-vcMMAE (antibody, V domains shown, monomethyl auristatin-E (MMAE) conjugated through the MC-Val-Cit-PAB linker; drug to antibody ratio 4.73; sites not stated) VH: QVQLKQSGPGLVQPSQSLSITCTVSGFSLTNYGVHWVRQSPGKGLEWLGVIWSGGSTDYNAAFISRLSISKDTSKSQVFFKMNSLQADDTAIYYCARELIHAMDNWGQGTSVTVSS VL: DIQMTQSPASLSVSVGETVTITCRASENIYSNLAWYQQKQGNSPQLLVFAATNLADGVPSRFSGSGSGTQYSLKINSLQSEDFGTYYCQHFWGTPTFGGGTKLEIK |
|  |  | no binding (tested: 0.625 µg/ml) | N41mab antibody (antibody, V domains shown, Mouse monoclonal antibody from a hybridoma (mice immunized with nectin4 V-Fc); also called mab1; Mab1) VH: QVQLKQSGPGLVQPSQSLSITCTVSGFSLTNYGVHWVRQSPGKGLEWLGVIWSGGSTDYNAAFISRLSISKDTSKSQVFFKMNSLQADDTAIYYCARELIHAMDNWGQGTSVTVSS VL: DIQMTQSPASLSVSVGETVTITCRASENIYSNLAWYQQKQGNSPQLLVFAATNLADGVPSRFSGSGSGTQYSLKINSLQSEDFGTYYCQHFWGTPTFGGGTKLEIK |
